Assay results reported in the DeepSol protein solubility set.

Experiment: soluble on expression in E. coli; label from the status in PepcDB or PDB records

Sequence | soluble on expression in E. coli
MKARQQKYCDKIANFWCHPTGKIIMSLAGKKIVLGVSGGIAAYKTPELVRRLRDRGADVRVAMTEAAKAFITPLSLQAVSGYPVSDSLLDPAAEAAMGHIELGKWADLVILAPATADLIARVAAGMANDLVSTICLATPAPVAVLPAMNQQMYRAAATQHNLEVLASRGLLIWGPDSGSQACGDIGPGRMLDPLTIVDMAVAHFSPVNDLKHLNIMITAGPTREPLDPVRYISNHSSGKMGFAIAAAAARRGANVTLVSGPVSLPTPPFVKRVDVMTALEMEAAVNASVQQQNIFIGCAAVADYRAATVAPEKIKKQATQGDELTIKMVKNPDIVAGVAALKDHRPYVVGFAAETNNVEEYARQKRIRKNLDLICANDVSQPTQGFNSDNNALHLFWQDGDKVLPLERKELLGQLLLDEIVTRYDEKNRR | not soluble
MKLSVVMPVYNEKATLRAIYEQVAAVTIDKEIILVDDCSTDGTREIVRELGATGATVVLHDRNMGKGAALRSGFRHVTGDVVLIQDADLEYDPGQYPLLIQPILNGEVDVVYGSRFLSGERSLGMSFWNRAGNRILTYLSNTLTKLELTDVETCYKVFSRDVLERITIEENRFGCEPEITAKLAKLGVRIREVGISYRGRTSAEGKKIGWRDFISSVRCIAKYTLT | soluble
MQNHVISLASAAERRAHIAATFGSRGIPFQFFDALMPSERLEQAMAELVPGLSAHPYLSGVEKACFMSHAVLWEQALDEGLPYIAVFEDDVLLGEGAEQFLAEDTWLEERFDKDSAFIVRLETMFMHVLTSPSGVADYGGRAFPLLESEHCGTAGYIISRKAMRFFLDRFAVLPPERLHPVDLMMFGNPDDREGMPVCQLNPALCAQELHYAKFHDQNSALGSLIEHDRRLNRKQQWRDSPANTFKHRLIRALTKIGREREKRRKRREQTIGKIIVPFQLEHHHHHH | soluble
MIDDDGYRPNVGIVICNRQGQVMWARRFGQHSWQFPQGGINPGESAEQAMYRELFEEVGLSRKDVRILASTRNWLRYKLPKRLVRWDTKPVCIGQKQKWFLLQLVSGDAEINMQTSSTPEFDGWRWVSYWYPVRQVVSFKRDVYRRVMKEFASVVMSLQENTPK | soluble
GMAQNIYDQPDFFAGYSQLGRSIEGLDGAAEWPALRAMLPEVGGLRIVDLGCGFGWFCRWAHEHGASYVLGLDLSEKMLARARAAGPDTGITYERADLDKLHLPQDSFDLAYSSLALHYVEDVARLFRTVHQALSPGGHFVFSTEHPIYMAPARPGWAIDAEGRRTWPIDRYLVEGPRKTDWLAKGVVKHHRTVGTTLNALIRSGFAIEHVEEFCPTDAQITARPELAEELDRPMFLLVSARR | soluble
MGHHHHHHSHPPTAPDRATAVATASRLGPYVLLEPEEGGRAYQALHCPTGTEYTCKVYPVQEALAVLEPYARLPPHKHVARPTEVLAGTQLLYAFFTRTHGDMHSLVRSRHRIPEPEAAVLFRQMATALAHCHQHGLVLRDLKLCRFVFADRERKKLVLENLEDSCVLTGPDDSLWDKHACPAYVGPEILSSRASYSGKAADVWSLGVALFTMLAGHYPFQDSEPVLLFGKIRRGAYALPAGLSAPARCLVRCLLRREPAERLTATGILLHPWLRQDPMPLAPTRSHLWEAAQVVPDGLGLDEARE | not soluble
GAMGDASRVRVSGQGLHEGHTFEPAEFIIDTRDAGYGGLSLSIEGPSKVDINTEDLEDGTCRVTYCPTEPGNYIINIKFADQHVPGSPFSVKVTGEGRVKESITRRRRAPSVANVGSHCDLSLKIPEISIQDMTAQVTSPSGKTHEAEIVEGENHTYCIRFVPAEMGTHTVSVKYKGQHVPGSPFQFTVGPLGEGGAHKVRAGGPGLERAEAGVPAEFSIWTREAGAGGLAIAVEGPSKAEISFEDRKDGSCGVAYVVQEPGDYEVSVKFNEEHIPDSPFVVPVASPS | soluble
MGSSHHHHHHSSGRENLYFQGHMPSNLNIVKVTKPQEENKNFLHKNTNEPNEMEQSQTQEAVTENFTENSNLSANEHAARRGRLNLKTVDHIETYPIVQETEEIAKKIALTRIILAQTKPRIDKVVVSRPVQAVAPVVNFFDKMANSTLSTVERVVPSLKTKTYKRLGEEIALPYTLSKKYGKQLRDTTARNGDNYVYQPVHGRLMKFRKYYNEKFIDTKGKPLIRGQLDPVLLPVNNTFEKVTVKYLPKGKKVPNDSFSCEFNRGLALEYNFMTRAVSAVSHQVVGIAKLPIAYGYHTNSVYNKNLDKQADLKMKNVLRGTWDTITDLEREIWASVTDRSLFRFFGNKSEGGDLPHLVQ | soluble
SQHFGRPRTTHEFLFGALAELVDNARDADATRIDIYAERREDLRGGFMLCFLDDGAGMDPSDAASVIQFGKSAKRTPESTQIGQYGNGLKSGSMRIGKDFILFTKKEDTMTCLFLSRTFHEEEGIDEVIVPLPTWNARTREPVTDNVEKFAIETELIYKYSPFRTEEEVMTQFMKIPGDSGTLVIIFNLKLMDNGEPELDIISNPRDIQMAETSPEGTKPERRSFRAYAAVLYIDPRMRIFIHGHKVQTKRLSCCLYKPRMYKYTSSRFKTRAEQEVKKAEHVARIAEEKAREAESKARTLEVRLGGDLTRDSRVMLRQVQNRAITLRREADVKKRIKEAKQRALKEPKELNFVFGVNIEHRDLDGMFIYNCSRLIKMYEKVGPQLEGGMACGGVVGVVDVPYLVLEPTHNKQDFADAKEYRHLLRAMGEHLAQYWKDIAIAQRGIIKFWDEFGYLSANWNQPPSSELRYKRRRAMEIPTTIQCDLCLKWRTLPFQLSSVEKDYPDTWVCSMNPDPEQDRCEASEQKQKVPLGTFRKDMKTQEEKQKQLTEKIRQQQEKLEALQKTTPIRSQADLKKLPLEVTTRPSTEEPVRRPQRPRSPPLPAVIRNAPSRPPSLPTPRPASQPRKAPVISSTPKLPALAAREEASTSRLLQPPEAPRKPANTLVKTASRPAPLVQQLSPSLLPNSKSPREVPSPKVIKTPVVKKTESPIKLSPATPSRKRSVAVSDEEEVEEEAERRKERCKRGRFVVKEEKKDSNELSDSAGEEDSADLKRAQKDKGLHVEVRVNREWYTGRVTAVEVGKHVVRWKVKFDYVPTDTTPRDRWVEKGSEDVRLMKPPSPEHQSLDTQQEGGEEEVGPVAQQAIAVAEPSTSECLRIEPDTTALSTNHETIDLLVQILRNCLRYFLPPSFPISKKQLSAMNSDELISFPLKEYFKQYEVGLQNLCNSYQSRADSRAKASEESLRTSERKLRETEEKLQKLRTNIVALLQKVQEDIDINTDDELDAYIEDLITKGD | soluble
MSLIKITIGICEYPSVLKSAVYGFEEMFLLANRICKEQNIEVVFEPILIPHTGLTAERLTVVLLPPASLDNYYLAPDDALIRWLKAHYSQGTVLSSACAGVFILAATNLIDSREVTTHWALAETFSQAFPSIALDSNKILINHGDIVTAGGMMSWLDLGFELIAKYASPGVVRQLGKTLVIDTAQRAQSYYQQFHPSFSHGDYAIVSIQQIMHQRYAEPLSIKQLAKQANLTERTMQRRFLKATGYNPNQYLQRLRIQSACHLLESTQHSFDSISHQVGYEDTSACRKVFINVIGLTPREFRKRFAEGHHHHHH | soluble
MGSDKIHHHHHHMSKHQNDNPRVPHEAAPLRVLHVGPGQGQRGGIASVLAELSAQRARFRDAGVVVAIFETHGFQSMRSLLCFPLVDIPRFLFAVLKGVDLIHFHVSVRGSFYRKFLLYLLARLFGKRTIFHLHAGNFQDFWASNGPTTRKAVSRFIRGADAVVAVSSAIASELQGHQGVTRNLYVIGNTAYSAELAAGAALRDSSGGKRVDMTPYVAFAGRFTEGKGLDELLRAVAALNRRGLKVQLRLAGAGDMDRWTRAAIEYGVSDQVRFVGWLQGDAKLEFYRDAAVFCMPSHFEAFGISTLEAMFIGRPVIGTRVGGFLDLVEEGVTGYLVRCGDSHGLAERIRHLVERPELAHEMGRQAVSRALSRYSVDAIVSQYARCYRQVNGSRGA | not soluble
MPRDVQVLPIATNTKVLRARSWSRLRFEIEYALERGTTSNSYVIEGDKTAIIDPPVESFMKIYLEALQQTVNLKKLDYVILGHFSPNRIPTFKALLELAPQITFVCSLPAAGDLRAAFPDDNLNILPMRGKETLDLGKGHVLKFLPIPSPRWPAGLCTYDVQTQILYTDKIFGAHICGDDVFDDNWESFKEDQRYYFNCLMAPHAIHVEAALEKISDLQVRLYAVGHGPLVRTSLIALTQAYADWSKAQKDREISVALLYASAYGNTATIARAIALGLTKGGVAVKSINCEFATPEEIQTNLEQVDGFLIGSPTIGGHAPTPINTALGIVLKVGDNNKLAGVFGSYGWSGEALDMIEGKLRDAGYRFGLDTLKVKFKPDDVTLKFCEEVGTDFAQTLKKAKKVRVPQQAATPVEQAVGRIVGSVCVITAKQGDVSTGMLGSWVSQATFNPPGLTVAIAKERAIESLMYPGGKFALNILSEGNHLEYMKHFRKNFAPGEDRFANFTTTEADNGCTVLADALAYVECSVDQRLECGDHWVVYATVDNGKLLKPDDVTAINHRKTGNHYLEHHHHHH | not soluble
MEDEIRKAAEILAKSKHAVVFTGAGISAESGIPTFRGEDGLWRKYDPEEVASISGFKRNPRAFWEFSMEMKDKLFAEPNPAHYAIAELERMGIVKAVITQNIDMLHQRAGSRRVLELHGSMDKLDCLDCHETYDWSEFVEDFNKGEIPRCRKCGSYYVKPRVVLFGEPLPQRTLFEAIEEAKHCDAFMVVGSSLVVYPAAELPYIAKKAGAKMIIVNAEPTMADPIFDVKIIGKAGEVLPKIVEEVKRLRSEK | soluble
MTKISERNIKVARKNVCKNIQRLNKKLSNKIKNEEAALPDIIAGTHGTPIEKLLTLYKLSDPIFTAIRPFTACRYGCSACCHYKVDLLPIEAELIAISLGQAPLPLPTTFQNGHGKRCPFLSKNGQCNIYSIRPMACRRHFMFTNSDYWCNPVHSEDIKIKMLGFSGIIEAYINIANQDGRYSPENIRDIRDYFTAGIDADVNARELDSELEHHHHHH | not soluble
MGSDKIHHHHHHMASLTFLGAAQEVTGSCYLLETLDGVKVLLECGMRQGRREADNGNRAPFPFDPASIDAVVISHAHLDHSGLLPRLAAEGFKGPIFATEATCELLELMLLDSAHIQEKDAEWENRWRNRIGKPSIKPLYTQADTERALKLRRPISLGSTVAVARGVRVTFHNAGHILGSSIVEVQFHDQVQPRRLVFSGDLGNTCSPLMRAPSPLSRADVVMLESTYGDRDHRDSNDTLEELAAILDQAHRDGGNVLIPSFAVGRTQDLLYYLGRFYQEGRLPQQAVFLDSPMAARANGIYLRHSNEFDDRDREYIRGTGTTRLEEWLPVLRVTRSADESMAINRIKSGAVIIAGSGMCTGGRIVHHFKHNLWRPECHVVFPGFQARGTLGRNIVDGASAVRVFHQRIAVKAQIHTLGGFSAHAGQSQLLDWVGHFAHRPALYLIHGEREKMEALQSAIRERLDWDAEIPEPGERIEI | not soluble
MLRQIVLMCAIHTACSFSIRDIINGKRGADAAIPAPCPTWHPFACPSGECVPIKYLCDGSPDCSDEYDENKSMCTAATRPPVEETQAFLKALMSAHGKDFLVKVFGPKAKAELSGMGGVDKVAVALSQTPTADLFASEMKLDDGETQHMLEVMEGILNGSTDELTSNEAADFRFFVQKLQETGFF | not soluble
MQSQRAYELIKAEIFKRLGVNRTDAYKDSYLQRRIRARMRKLGISDYMEYYKILKSNKEEFEELLLTIAINVTEFFRDPIVWKTFQNKILPELVQFKKSKGFRSIKIWSAACSTGQEPYSIAMTLYEVLGENLGGFRVSILATDIDKEALQIAMRGEYPVDAVEKQVPRHMIYKYFDRISEERYRIKPHVKRLVTFRWFNLLSSIYPKGFDVIFIRNVLIYMSKEAQEDIFRKLYDSLEDHGYLILGKTETILGRSANLFKLYDLVAKVYKKNLGVKGNG | soluble
MKMPEHTDTPKEKILVYIRAEKQKTLHRRQVCINDIASVYCKYSRYEGQIKGIIVDKIRGKKSVISVMKIIEQITEIYDDAQVISIGEPEVLVEYDDNSKNKILEA | soluble
